Measured values reported in paper PMC12062102, “Dual Targeting of Neuropilin-1 and Glucose Transporter for Efficient Fluorescence Imaging of Cancer” (Molecular Imaging and Biology, 2025).

Experiments:
[1] = Description: Probe NGF (10 μM) was added to a mixture of H2O (0.5 mL) and n-octanol (0.5 mL), shaken thoroughly, and centrifuged for 3 min. The absorbance (A) of NGF in both H2O and n-octanol was measured using a UV-vis absorption spectrometer.
HCT116 cells = experiment: Flow cytometry / confocal imaging and blocking study in HCT116 cells; format: cell-based, human
Description: (§1) MDA-MB-231, HCT116, and NCI-H1299 cells in logarithmic growth phase were seeded in 6-well plate and incubated at 37 ℃ in a 5% CO2 humidified incubator for 12 h, then the cells were fixed with 4% paraformaldehyde containing 1% TritonX-100 overnight at 4 ℃. Next, cells were treated with NGF (2 μM) for 1 h, stained with DAPI for 5 min, and finally the fluorescent images were captured using laser scanning fluorescence confocal microscopy (Olympus IX51). Images were captured using a U-LH100 HG mercury lamp with a WIY (Cy5 channel) filter and a 200 ms exposure time. A 10 × eyepiece and a 20 × objective were used for a total magnification of 200 × . A scale bar of 50 μm was included for reference.
(§2) Cancer cells MDA-MB-231, NCI-H1299 and HCT116 in logarithmic growth phase were harvested and transferred to sterile tubes with DMEM medium at a density of 2 × 10^5 cells per tube. […] Subsequently, the cells were resuspended in 0.5 mL of PBS buffer, and about 2 × 10^4 target cells were extracted for flow cytometry analysis (FACS Verse, BD) with FL4 channel, and the mean fluorescence intensity was quantified using FlowJo software.
(§3) For the blocking study, the cells of HCT116, NCI-H1299, and MDA-MB-231 were pretreated with the D-glucose (50 μM), NRP1 peptide (50 μM), and D-glucose + NRP1 peptide (50 μM) for 30 min. […] Then the fluorescence signals were detected by flow cytometry and microscopy imaging.

[2] = Aqueous stability of NGF in PBS; format: physicochemical; settings: 3 μM in PBS, 37°C, 48 h incubation, UV-vis absorbance A/A0
[3] = In vivo IVIS fluorescence imaging, signal clearance and persistence in tumor-bearing mice; design: species or system Balb/c nude mice; settings: 25 μM NGF, 200 μL i.v.
Description: (§4) The SPF female Balb/c nude mice (4–5 weeks old) were obtained from Changzhou Cavens Laboratory Animal Co., LTD (Changzhou, China). Tumor models were created by subcutaneously injecting 0.5 ~ 1 × 10^7 MDA-MB-231, HCT116 or NCI-H1299 cells in 100 μL PBS into the right forelimb of the nude mice. Imaging studies were conducted once the tumor volume reached approximately 100 mm^3. All animal experiments requiring the use of mice were approved by the animal care committee of Shanghai University (ECSHU 2024–004).
(§5) Animal fluorescence imaging was conducted using an IVIS Imaging spectroscopy system (PerkinElmer Inc., USA). MDA-MB-231, HCT116, and NCI-H1299 tumor-bearing mice (n = 3–5) were intravenously injected with 25 μM NGF (200 μL) via the tail vein. Following injection, mice were anesthetized with a 2% v/v isoflurane/oxygen mixture at a flow rate of […] to maintain stable physiological conditions during imaging. Subsequently, long-term optical imaging observations of tumor-bearing mice were performed using the IVIS Spectrum imaging system (PerkinElmer, USA). Imaging scans were conducted at various time points (1, 2, 4, 6, 8, 12, 24, 36, 48, 60, and 72 h) after NGF administration. The excitation wavelength (λex) was set to 745 nm and the emission wavelength (λem) was set to 840 nm for optimal fluorescence signal acquisition.

MDA-MB-231 cells = experiment: Flow cytometry / confocal imaging and blocking study in MDA-MB-231 cells; format: cell-based, human
Description: as §1, §2, §3

[4] = Photostability of NGF under laser irradiation; format: physicochemical; settings: 3 μM in methanol, laser irradiation 30 min, UV-vis absorbance A/A0
NCI-H1299 cells = experiment: Confocal fluorescence imaging in NCI-H1299 cells; format: cell-based, human; settings: NCI-H1299 (NRP1- and GLUT1-negative), NGF 2 μM, 1 h
Description: as §1
Cancer cells MDA-MB-231, NCI-H1299 and HCT116 in logarithmic growth phase were harvested and transferred to sterile tubes with DMEM medium at a density of 2 × 10^5 cells per tube. Various concentrations of NGF (0.125, 0.25, 0.5, 1, and 2 μM) were added, and the cells were incubated in a humidified incubator with 5% CO2 at 37 ℃ for 1 h. Subsequently, the cells were resuspended in 0.5 mL of PBS buffer, and about 2 × 10^4 target cells were extracted for flow cytometry analysis (FACS Verse, BD) with FL4 channel, and the mean fluorescence intensity was quantified using FlowJo software.

[5] = Photophysical properties (absorption, emission, ε, ΦF); format: physicochemical
Description: To investigate the spectral characteristics of probe, NGF (25 μM) was prepared using methanol, and the NGF stock solution was diluted to various concentrations (0.5, 1, 2, 3, and 4 μM) with both methanol or water as solvents. The absorption spectra at various concentrations were recorded using a UV–vis absorption spectrometer. To better understand how the solvent affects the fluorescence properties of NGF, the fluorescence emission spectra of 4 μM NGF were analyzed in both methanol and water. The molar absorption coefficient (ε), fluorescence quantum yield (ΦF), as well as the stability of NGF were investigated, and the details were provided in the Supporting Information.
where, Ix is the measured integrated emission intensity; η is the refractive index of the solvent; A is the absorbance of the solution; the subscript x denotes the probe; st denotes the reference compound.

[6] = 3 μM in 10% (v/v) mouse serum, 37°C, 48 h incubation, UV-vis absorbance A/A0
Description: NGF solution (3 μM) was prepared in PBS and 10% (v/v) mouse serum, and the initial absorbance (A0) was measured. Then NGF was incubated with PBS and mouse serum at 37°C, and the absorbance (A) was recorded at 4, 8, 12, 24, and 48 h, respectively. The stability of the probe was evaluated based on the ratio of A/A0. For the photostability, NGF solution (3 μM) was prepared in methanol, and the initial absorbance (A0) was measured. Then NGF was then subjected to laser irradiation, and the absorbance measurements (A) were recorded at 5, 10, 15, 20, and 30 min, respectively. The stability of the probe was evaluated based on the ratio of A/A0.

HCT116 tumor = experiment: In vivo IVIS fluorescence imaging, HCT116 tumor-bearing mice; design: species or system Balb/c nude mice; settings: 25 μM NGF
Description: as §4, §5

MDA-MB-231 tumor = experiment: In vivo IVIS fluorescence imaging, MDA-MB-231 tumor-bearing mice; design: species or system Balb/c nude mice; settings: 25 μM NGF, 200 μL i.v., imaging up to 72 h
Description: as §4, §5

NCI-H1299 tumor = experiment: In vivo IVIS fluorescence imaging, NCI-H1299 tumor-bearing mice; design: species or system Balb/c nude mice; settings: 25 μM NGF, 200 μL i.v., n = 3–5
Description: as §4, §5

In the case of `CC(C)C[C@H](NC(=O)[C@H](C)NC(=O)CCOCCOCCOCCOCCn1cc(CCC[N+]2=C(C=CC3=C(Cl)C(=CC=C4N(CCCc5cn([C@H]6C(O)O[C@H](CO)[C@@H](O)[C@@H]6O)nn5)c5ccccc5C4(C)C)CCC3)C(C)(C)c3ccccc32)nn1)C(=O)N[C@@H](CCCCN)C(=O)N[C@@H](C)C(=O)N[C@@H](CC(=O)O)C(=O)N[C@@H](CCCCN)C(=O)O` (some centres unmarked) [NGF], the logP [1] is reported as -0.95 ± 0.07, the “uptake relative to mono-receptor block conditions” value (HCT116 cells; HCT116, NGF 2 μM 1 h, pre-treatment 30 min with D-glucose (50 μM) or NRP1 peptide (50 μM), flow cytometry mean fluorescence intensity) is reported as 1.4–1.5 times and the “cellular internalization (confocal fluorescence)” value (HCT116 cells; HCT116, NGF 2 μM, 1 h) is reported as “substantial internalization”. The “absorbance as % of initial absorbance (A0) in PBS” value [2] was 97.7%, the “time for fluorescent signal to clear from non-target organs” value [3] was no more than 12 h and the “uptake relative to mono-receptor block conditions” value (MDA-MB-231 cells; MDA-MB-231, NGF 2 μM 1 h, pre-treatment 30 min with D-glucose (50 μM) or NRP1 peptide (50 μM), flow cytometry mean fluorescence intensity) was 1.7–2.5 times. The “cellular internalization (confocal fluorescence)” value (MDA-MB-231 cells; MDA-MB-231, NGF 2 μM, 1 h) was “significantly internalized”, the “absorbance as % of A0 after laser irradiation” value [4] was 56.7% and the “cellular fluorescence (confocal)” value (NCI-H1299 cells) was “minimal fluorescence”. For the same compound, the “fluorescence intensity in methanol” value ([5]; 4 μM in methanol) was 12365 a.u, the maximum absorbance ([5]; 4 μM in methanol) was 1.06 and the “absorption peak (λmax) in MeOH” value ([5]; MeOH) was 783 nm. The “fluorescence emission peak (λem) in MeOH” value ([5]; MeOH, λex = 750 nm) was 807 nm, the “aggregation in aqueous solution” value ([5]; inferred from lower absorbance and fluorescence in H2O than in MeOH) was “some degree of aggregation” and the “extinction coefficient ε in n-octanol” value ([5]; n-octanol) was 124367 M⁻¹ cm⁻¹. For the same compound, the “absorbance as % of initial absorbance (A0) in 10% mouse serum” value [6] was 95.2%, the “time post-injection at which tumor could be clearly identified” value (HCT116 tumor; 200 μL i.v. tail vein, n = 3–5, λex 745 nm / λem 840 nm) was 1 h and the “retention in tumor post-injection” value (HCT116 tumor; 200 μL i.v., imaging up to 72 h) was “at least 72 h”. For the same compound, the “retention in tumor post-injection” value (MDA-MB-231 tumor) was “at least 72 h” and the tumor fluorescence intensity (NCI-H1299 tumor) was “comparatively weak”.
